The experiment deals with S. aureus. The experiment can be described thus: Antibacterial activity analysis of En-MAP1 protein. The class given is cell-based, Staphylococcus aureus. Here is the method: Both folded and unfolded proteins were tested for antibacterial activity against S. aureus by pipetting 10 μg of protein on the S. aureus culture on an LB plate. The activity was also tested in folded and unfolded protein digested with trypsin in 0.01% acetic acid at concentrations of 30 and 60 μg/ml.

The values below come from patent US11096985B2, “Antimicrobial peptides, their variants and uses” (priority 2015, dated 2021).

B1: En-MAP1: protein of 549 amino acids from an endophyte of Empetrum nigrum, GenBank KC466596 (protein, listed as Empetrum nigrum)
chain: MRLVAHPVPDAPLYALMIKACSMGIPQPNDNLWKPRNPLLAKEEKTSKRGRTAPDTERALDLFREMTLRYNIRPTAEVYTAIIAACVKRDDMYDKGFGLFKKMVELERNRMSSEGHDSTSFAPTRATYNALLRGCARNKDLLRARWILAEMLRTAQAKWQEFMEKSKKGEEGVQEWELLEVEEMRPDTNTMAFLFYTYASHTTSSKAVPETEGKKELEGKAEERASEVTSVSPVSEPPEPMDESKLVYSLPTSSQAILREVTSLLDRIKSDQGQQSNLLSSVQINSKLLNSYIAVLSAHCRSSQVVERISEVVVGTKENPKSLFEETGTSVNGYTCFTVIDACGMMEHSPDTYHLACEMWQRWLSLVENATFHRENPLKAKEIGLDSRTISDCWSAMIRLHAKYNQVDEAMKLVHEFARLYPPASLFNSLTFEPSSTSSSSLSPRKGVQEISPLFSSTSLTHSIRGRDISRIQNTMSQDPTLQFRAVQILHLRLVELETRPKDLAYLSWLLKSYEHQLQPKRPKSLQGDLFTSRQAAYNRIVQQRTSSR
B1: the “antibacterial activity against S. aureus, trypsin digest of folded protein” value (folded full protein digested with trypsin) is “antibacterial activity was observed for up to two hours after digestion”. Further, where the note is “folded protein or expressed fragments”, the “antibacterial activity against S. aureus” value is “no activity was observed”. Also, where the note is “unfolded protein digested with trypsin”, the “antibacterial activity against S. aureus, trypsin digest of unfolded protein” value is “No activity was detected”.
